From paper PMC9860497 come the findings set out here.

The target of the test is 14-3-3γ (UniProt P61982). Nature of the test: anti-Flag co-IP, anti-HA blot. The note with it: reference: wild-type HA-TMCC3-D1; sites S15.

Turning to “TMCC3 TMCC3-D1, 1-210 (from UniProt Q8R310) HA-TMCC3-D1-S15A”, the “binding against the reference” value is “weaker”.
